# Assay results reported in patent publication US20120014957A1 (AbbVie / Abbott, published 2012).
# B1: DVD1313 (bispecific antibody, human IgG1, lambda)
# heavy: not shown
# light: DIQMTQSPSSLSASVGDRVTITCRASEDIYNALAWYQQKPGKAPKLLIYNTDTLHTGVPSRFSGSGSGTDYTLTISSLQPEDFATYFCQHYFHYPRTFGQGTKVEIKRTVAAPQSVLTQPPSVSAAPGQKVTISCSGSSSNIENNHVSWYQQLPGTAPKLLIYDNNKRPSGIPDRFSGSKSGTSATLGITGLQTGDEADYYCETWDTSLSAGRVFGGGTKLTVLGQPKAAPSVTLFPPSSEELQANKATLVCLISDFYPGAVTVAWKADSSPVKAGVETTTPSKQSNNKYAASSYLSLTPEQWKSHRSYSCQVTHEGSTVEKTVAPTECS
# B2: DVD1314 (bispecific antibody, human IgG1, kappa)
# heavy: not shown
# light: QSVLTQPPSVSAAPGQKVTISCSGSSSNIENNHVSWYQQLPGTAPKLLIYDNNKRPSGIPDRFSGSKSGTSATLGITGLQTGDEADYYCETWDTSLSAGRVFGGGTKLTVLGQPKAAPDIQMTQSPSSLSASVGDRVTITCRASEDIYNALAWYQQKPGKAPKLLIYNTDTLHTGVPSRFSGSGSGTDYTLTISSLQPEDFATYFCQHYFHYPRTFGQGTKVEIKRTVAAPSVFIFPPSDEQLKSGTASVVCLLNNFYPREAKVQWKVDNALQSGNSQESVTEQDSKDSTYSLSSTLTLSKADYEKHKVYACEVTHQGLSSPVTKSFNRGEC
# B3: DVD1370 (bispecific antibody, human IgG1, kappa)
# heavy: not shown
# light: DIQMTQSPSSMSVSVGDRVTITCHSSQDINSNIGWLQQKPGKSFKGLIYHGTNLDDGVPSRFSGSGSGTDYTLTISSLQPEDFATYYCVQYAQFPWTFGGGTKLEIKRTVAAPDIQMTQSPSSLSASVGDRVTITCRASEDIYNALAWYQQKPGKAPKLLIYNTDTLHTGVPSRFSGSGSGTDYTLTISSLQPEDFATYFCQHYFHYPRTFGQGTKVEIKRTVAAPSVFIFPPSDEQLKSGTASVVCLLNNFYPREAKVQWKVDNALQSGNSQESVTEQDSKDSTYSLSSTLTLSKADYEKHKVYACEVTHQGLSSPVTKSFNRGEC
# notes: DVD-Ig; also called DVD1370H; DVD1370L
# B4: DVD1316 (bispecific antibody, human IgG1, kappa)
# heavy: not shown
# light: DVVMTQSPLSLPVTPGEPASISCRSSQSLLHSNGFNYVDWYLQKPGQSPHLLIYFGSYRASGVPDRFSGSGSGTDFTLKISRVEAEDVGVYYCMQALQTPPWTFGQGTKVEIRRTVAAPDIQMTQSPSSLSASVGDRVTITCRASEDIYNALAWYQQKPGKAPKLLIYNTDTLHTGVPSRFSGSGSGTDYTLTISSLQPEDFATYFCQHYFHYPRTFGQGTKVEIKRTVAAPSVFIFPPSDEQLKSGTASVVCLLNNFYPREAKVQWKVDNALQSGNSQESVTEQDSKDSTYSLSSTLTLSKADYEKHKVYACEVTHQGLSSPVTKSFNRGEC
# B5: DVD1335 (bispecific antibody, human IgG1, kappa)
# heavy: not shown
# light: DIQMTQSPSSLSASVGDRVTITCRASEDIYNALAWYQQKPGKAPKLLIYNTDTLHTGVPSRFSGSGSGTDYTLTISSLQPEDFATYFCQHYFHYPRTFGQGTKVEIKRTVAAPQIVLSQSPAILSPSPGEKVTMTCRASSSVSYIHWFQQKPGSSPKPWIYATSNLASGVPVRFSGSGSGTSYSLTISRVEAEDAATYYCQQWTSNPPTFGGGTKLEIKRTVAAPSVFIFPPSDEQLKSGTASVVCLLNNFYPREAKVQWKVDNALQSGNSQESVTEQDSKDSTYSLSSTLTLSKADYEKHKVYACEVTHQGLSSPVTKSFNRGEC
# B6: DVD1318 (bispecific antibody, human IgG1, kappa)
# heavy: not shown
# light: DIEMTQSPDSLAVSLGERATINCRSSQSVLYSSSNRNYLAWYQQNPGQPPKLLIYWASTRESGVPDRFSGSGSGTDFTLTISSLQAEDVAVYYCQQYYSTPRTFGQGTKVEIKRTVAAPDIQMTQSPSSLSASVGDRVTITCRASEDIYNALAWYQQKPGKAPKLLIYNTDTLHTGVPSRFSGSGSGTDYTLTISSLQPEDFATYFCQHYFHYPRTFGQGTKVEIKRTVAAPSVFIFPPSDEQLKSGTASVVCLLNNFYPREAKVQWKVDNALQSGNSQESVTEQDSKDSTYSLSSTLTLSKADYEKHKVYACEVTHQGLSSPVTKSFNRGEC
# B7: DVD1315 (bispecific antibody, human IgG1, kappa)
# heavy: not shown
# light: DIQMTQSPSSLSASVGDRVTITCRASEDIYNALAWYQQKPGKAPKLLIYNTDTLHTGVPSRFSGSGSGTDYTLTISSLQPEDFATYFCQHYFHYPRTFGQGTKVEIKRTVAAPDVVMTQSPLSLPVTPGEPASISCRSSQSLLHSNGFNYVDWYLQKPGQSPHLLIYFGSYRASGVPDRFSGSGSGTDFTLKISRVEAEDVGVYYCMQALQTPPWTFGQGTKVEIRRTVAAPSVFIFPPSDEQLKSGTASVVCLLNNFYPREAKVQWKVDNALQSGNSQESVTEQDSKDSTYSLSSTLTLSKADYEKHKVYACEVTHQGLSSPVTKSFNRGEC
# B8: DVD1320 (bispecific antibody, human IgG1, kappa)
# heavy: not shown
# light: DIQMTQSPSSLSASVGDRVTITCQASQDITNYLNWYQQKPGKAPKLLIYDASNLETGVPSRFSGSGSGTDFTFTISSLQPEDIATYNCQQCENFPITFGQGTRLEIKRTVAAPDIQMTQSPSSLSASVGDRVTITCRASEDIYNALAWYQQKPGKAPKLLIYNTDTLHTGVPSRFSGSGSGTDYTLTISSLQPEDFATYFCQHYFHYPRTFGQGTKVEIKRTVAAPSVFIFPPSDEQLKSGTASVVCLLNNFYPREAKVQWKVDNALQSGNSQESVTEQDSKDSTYSLSSTLTLSKADYEKHKVYACEVTHQGLSSPVTKSFNRGEC
# notes: DVD-Ig; also called DVD1320H; DVD1320L
# B9: AB063 (antibody, V domains shown)
# VH: EVQLVESGGGLVQPGGSLRLSCAASGFTFSIYSMNWVRQAPGKGLEWVSYISSSSSTIYYADSVKGRFTISRDNAKNSLYLQMNSLRDEDTAVYYCARDRGDFDAFDIWGQGTMVTVSS
# VL: DIQMTQSPSSLSASVGDRVTITCQASQDITNYLNWYQQKPGKAPKLLIYDASNLETGVPSRFSGSGSGTDFTFTISSLQPEDIATYNCQQCENFPITFGQGTRLEIKR
# notes: Parent antibody; also called AB063VH
# B10: DVD1333 (bispecific antibody, human IgG1, kappa)
# heavy: not shown
# light: DIQMTQSPSSLSASVGDRVTITCRASEDIYNALAWYQQKPGKAPKLLIYNTDTLHTGVPSRFSGSGSGTDYTLTISSLQPEDFATYFCQHYFHYPRTFGQGTKVEIKRTVAAPQAVLTQPSSLSAPPGASASLTCTLRSGFNVDSYRISWYQQKPGSPPQYLLRYKSDSDKQQGSGVPSRFSGSKDASANAGILLISGLQSEDEADYYCMIWHSSAWVFGGGTKLTVLRTVAAPSVFIFPPSDEQLKSGTASVVCLLNNFYPREAKVQWKVDNALQSGNSQESVTEQDSKDSTYSLSSTLTLSKADYEKHKVYACEVTHQGLSSPVTKSFNRGEC
# B11: DVD1369 (bispecific antibody, human IgG1, kappa)
# heavy: not shown
# light: DIQMTQSPSSLSASVGDRVTITCRASEDIYNALAWYQQKPGKAPKLLIYNTDTLHTGVPSRFSGSGSGTDYTLTISSLQPEDFATYFCQHYFHYPRTFGQGTKVEIKRTVAAPDIQMTQSPSSMSVSVGDRVTITCHSSQDINSNIGWLQQKPGKSFKGLIYHGTNLDDGVPSRFSGSGSGTDYTLTISSLQPEDFATYYCVQYAQFPWTFGGGTKLEIKRTVAAPSVFIFPPSDEQLKSGTASVVCLLNNFYPREAKVQWKVDNALQSGNSQESVTEQDSKDSTYSLSSTLTLSKADYEKHKVYACEVTHQGLSSPVTKSFNRGEC
# notes: DVD-Ig; also called DVD1369H; DVD1369L
# B12: DVD1338 (bispecific antibody, human IgG1, kappa)
# heavy: not shown
# light: DIQMTQSPSSLSASVGDRVTITCQASQDISNYLNWYQQKPGKAPKLLIYDASNLETGVPSRFSGSGSGTDFTFTISSLQPEDIATYFCQHFDHLPLAFGGGTKVEIKRTVAAPDIQMTQSPSSLSASVGDRVTITCRASEDIYNALAWYQQKPGKAPKLLIYNTDTLHTGVPSRFSGSGSGTDYTLTISSLQPEDFATYFCQHYFHYPRTFGQGTKVEIKRTVAAPSVFIFPPSDEQLKSGTASVVCLLNNFYPREAKVQWKVDNALQSGNSQESVTEQDSKDSTYSLSSTLTLSKADYEKHKVYACEVTHQGLSSPVTKSFNRGEC
# B13: DVD1362 (bispecific antibody, human IgG1, kappa)
# heavy: not shown
# light: QSALTQPASVSGSPGQSITISCTGTSSDVGSYNVVSWYQQHPGKAPKLIIYEVSQRPSGVSNRFSGSKSGNTASLTISGLQTEDEADYYCCSYAGSSIFVIFGGGTKVTVLGQPKAAPDIQMTQSPSSLSASVGDRVTITCRASEDIYNALAWYQQKPGKAPKLLIYNTDTLHTGVPSRFSGSGSGTDYTLTISSLQPEDFATYFCQHYFHYPRTFGQGTKVEIKRTVAAPSVFIFPPSDEQLKSGTASVVCLLNNFYPREAKVQWKVDNALQSGNSQESVTEQDSKDSTYSLSSTLTLSKADYEKHKVYACEVTHQGLSSPVTKSFNRGEC
# Legend:
# [1] = target: Recombinant Human β-NGF (human, UniProt P01138 122-241); experiment: cell-based or functional assay
# [2] = target: T1, Recombinant Human EGF R/ErbB1 (human, UniProt P00533 25-645); experiment: SPR (Biacore)
# T1 construct: Bought reagent
# Experimental: (§1) The BIACORE assay (Biacore, Inc, Piscataway, N.J.) determines the affinity of antibodies or DVD-Ig with kinetic measurements of on-rate and off-rate constants. Binding of antibodies or DVD-Ig to a target antigen (for example, a purified recombinant target antigen) was determined by surface plasmon resonance-based measurements with a Biacore® 1000 or 3000 instrument (Biacore® AB, Uppsala, Sweden) using running HBS-EP (10 mM HEPES [pH 7.4], 150 mM NaCl, 3 mM EDTA, and 0.005% surfactant P20) at 25° C. All chemicals were obtained from Biacore® AB (Uppsala, Sweden) or otherwise from a different source as described in the text. For example, approximately 5000 RU of goat anti-mouse IgG, (Fcγ), fragment specific polyclonal antibody (Pierce Biotechnology Inc, Rockford, Ill.) diluted in 10 mM sodium acetate (pH 4.5) was directly immobilized across a CM5 research grade biosensor chip using a standard amine coupling kit according to manufacturer's instructions and procedures at 25 μg/ml. Unreacted moieties on the biosensor surface were blocked with ethanolamine. Modified carboxymethyl dextran surface in flowcell 2 and 4 was used as a reaction surface. Unmodified carboxymethyl dextran without goat anti-mouse IgG in flow cell 1 and 3 was used as the reference surface. For kinetic analysis, rate equations derived from the 1:1 Langmuir binding model were fitted simultaneously to association and dissociation phases of all eight injections (using global fit analysis) with the use of Biaevaluation 4.0.1 software. Purified antibodies or DVD-Ig were diluted in HEPES-buffered saline for capture across goat anti-mouse IgG specific reaction surfaces. Antibodies or DVD-Ig to be captured as a ligand (25 μg/ml) were injected over reaction matrices at a flow rate of 5 μl/min. The association and dissociation rate constants, kₒₙ (M⁻¹s⁻¹) and koff (s⁻¹) were determined under a continuous flow rate of 25 μl/min. Rate constants were derived by making kinetic binding measurements at different antigen concentrations ranging from 10-200 nM. The equilibrium dissociation constant (M) of the reaction between antibodies or DVD-Igs and the target antigen was then calculated from the kinetic rate constants by the following formula: KD=koff/kₒₙ. Binding was recorded as a function of time and kinetic rate constants were calculated.
# [3] = target: T2, Recombinant Human ErbB3/HER3 Fc Chimera (human, UniProt P21860 20-643); experiment: SPR (Biacore)
# T2 construct: Bought reagent; not shown: IgG Fc part of the bought chimera
# Experimental: as §1
binder,measurement,setting,value
B1,N-Terminal VD NGF Inhibition Assay EC50,[1],0.9 pM
B2,C-Terminal VD NGF Inhibition Assay EC50,[1],0.3 pM
B3,C-Terminal VD NGF Inhibition Assay EC50,[1],5960 pM
same,Kd,[2],< 9.1 pM
same,koff,[2],< 1e-06 s⁻¹
same,kon,[2],110000 M⁻¹ s⁻¹
B4,C-Terminal VD NGF Inhibition Assay EC50,[1],874 pM
B5,N-Terminal VD NGF Inhibition Assay EC50,[1],0.3 pM
B6,C-Terminal VD NGF Inhibition Assay EC50,[1],53.4 pM
B7,N-Terminal VD NGF Inhibition Assay EC50,[1],2.2 pM
B8,Kd,[3],< 4.2 pM
same,koff,[3],< 1e-06 s⁻¹
same,kon,[3],240000 M⁻¹ s⁻¹
B9,Kd,[3],1360 pM
same,koff,[3],0.000117 s⁻¹
same,kon,[3],86600 M⁻¹ s⁻¹
B10,N-Terminal VD NGF Inhibition Assay EC50,[1],0.6 pM
B11,N-Terminal VD NGF Inhibition Assay EC50,[1],5.6 pM
same,Kd,[2],< 2.4 pM
same,koff,[2],< 1e-06 s⁻¹
same,kon,[2],410000 M⁻¹ s⁻¹
B12,C-Terminal VD NGF Inhibition Assay EC50,[1],1270 pM
B13,C-Terminal VD NGF Inhibition Assay EC50,[1],2.5 pM
